From paper PMC7756681, “Functional Hybrid Molecules for the Visualization of Cancer: PESIN‐Homodimers Combined with Multimodal Molecular Imaging Probes for Positron Emission Tomography and Optical Imaging: Suited for Tracking of GRPR‐Positive Malignant Tissue” (Chemistry (Weinheim an Der Bergstrasse, Germany), 2020) come the findings set out here.

Each structure is given as a SMILES string.

Series [1] concerns the target T1, gastrin-releasing peptide receptor (GRPR) (Homo sapiens, UniProt P30550).
T1 construct: host or cells: Human Embryonic Kidney 293 cells (HEK-GRPR)
As to the kind of experiment: Competitive displacement assay on stably GRPR-transfected HEK cells using [125I]-Tyr4-bombesin. Format: binding. To be noted: [125I]-Tyr4-bombesin as competitor, 1 h, ambient temperature, read-out: IC50 (GRPR affinity). As for the experimental part:
(§1) Competitive receptor binding assay
(§2) Stably GRPR-transfected Human Embryonic Kidney 293 cells (HEK-GRPR) were cultured at 37°C in Dulbecco’s Modified Eagle’s Medium (DMEM, high glucose, GlutaMax-I, 500 mL) […]
a humidified atmosphere containing 5 % CO2. The medium was exchanged every two or three days and cells were split at >75 % confluence. In vitro binding affinities were determined via competitive displacement experiments which were performed at least trice, each experiment performed in triplicate. A Millipore Multiscreen punch kit and Millipore 96 well filter plates (pore size 1.2 µm) were used. The plates were incubated with PBS/BSA (1%) solution (each well 200 µL) for one hour before use. HEK-GRPR cells were harvested and suspended carefully in Opti-MEM I (GlutaMAX I) medium. 50 µL of a cell suspension containing […] were seeded in each well. To this, a total volume of 50 µL was added to each well, containing 25 µL (0.012 […]
The competitor was added in 11 increasing concentrations ranging from 0.25 – 500 nM for 6 – […]
binding of the radioligand. After one hour of incubation at ambient temperature, the solution was filtrated and the filters were washed with cold PBS (3 times). The filters were collected and […]

Series [2] can be described thus: Photophysical properties (absorption and emission spectra in PBS). In kind it is physicochemical. The note with it: for Log ϵ / Stokes shift / λ max: 1×10^−5 mol L^−1. From the text:
After studying the chemical and biological properties of the MIUs and their corresponding multimodal imaging agents, the photophysical properties of the substances were finally under investigation. Here, we found no significant decrease or shift of the optical and fluorescent characteristics of the bioconjugates compared to the MIUs (Table 2).
Fig. S27 Normalized absorption and emission spectra of 7 (left) and 7a (right), recorded in PBS
at a concentration of c = 1.0 x 10-5 mol/L, emission wavelength stated in the graph (bottom, left
Fig. S28 Normalized absorption and emission spectra of 8 (left) and 8a (right), recorded in PBS
Fig. S29 Normalized absorption and emission spectra of 9 (left) and 9a (right), recorded in PBS […]
Fig. S30 Normalized absorption and emission spectra of 10 (left) and 10a (right), recorded in
PBS at a concentration of c = 1.0 x 10-5 mol/L, emission wavelength stated in the graph (bottom,
Fig. S31 Normalized absorption and emission spectra of 11 (left) and 11a (right), recorded in
Fig. S32 Normalized absorption and emission spectra of 12 (left) and 12a (right), recorded in […]

Series [3] in a line: LogD determination of 68Ga-labeled MIUs and bioconjugates (water/1-octanol partition, γ-counter). To be noted: pH 7.4. As for the experimental part: Following the synthesis of the MIUs 6 a–13 a and the corresponding bioconjugates 6–13, the radiolabeling efficiency of the compounds with ^68Ga^3+ was investigated. […] In the following, we investigated the lipophilicity of the MIUs [^68Ga]6 a–[^68Ga]13 a and their bioconjugates [^68Ga]6–[^68Ga]13 (Table 1 and Figure 2 C,D).
A solution of the respective multimodal imaging unit (MIU) 6a – 13a (5 nmol) or multimodal imaging agent 6 - 14 (5 nmol) in H2O (Tracepur quality, 1mM) was added to 90 - 120 MBq of [68Ga]GaCl in a solution obtained by fractioned elution of an IGG 68Ge/68Ga generator system […]
with HCl (0.1 M, 1.6 mL) and subsequent titration to pH 3.5 – 4.2 by addition of sodium acetate solution (1.25 M, 50 – 75 µL). All labeling experiments were performed by addition of 2 mg ascorbic acid to suppress radiolysis-induced product fragmentation. In the labeling experiments of the MIUs 6a – 13a, 1 - 4 mg TCEP x HCl were added and the pH was adjusted to 3.5 – 4.2 by addition of sodium acetate solution (1.25 M). After reaction for 10 min at 45°C, the reaction mixtures were analyzed by analytical radio-HPLC.
For 68Ga-6/6a – 68Ga-13/13a, the water/1-octanol partition coefficient (log ) was determined by […]
adding 5 µL of the respectively 68Ga-labeled compound (0.8 – 1.2 MBq) to a mixture of phosphate buffer (0.05 M, pH 7.4, 795 µL) and 1-octanol (800 µL). The mixtures were intensively shaken for 5 minutes on a vibrating plate. After subsequent centrifugation at 13 000 rpm for 5 min, 125 µL were taken from each phase and measured in a γ-counter. The logD values were calculated from three or four independent experiments, each performed in triplicate.
For 14, the water/1-octanol partition coefficient (logD) was determined by semipreparative HPLC.
For this purpose, 10 µL solution (c = 5 x 10-4 mol/L) of the substance were added to a mixture of 1 mL 1-octanol and 990 µL phosphate buffered solution (0.05 M, pH 7.4) and the mixture was vigorously shaken for 5 minutes. After centrifugation, the phases were separated and both phases were analyzed by semipreparative HPLC. The logD was determined by three separate measurements, each experiment performed in triplicate.
as §1, §2
a humidified atmosphere containing 5 % CO2. The medium was exchanged every two or three days and cells were split at >75 % confluence. In vitro binding affinities were determined via competitive displacement experiments which were performed at least trice, each experiment performed in triplicate. A Millipore Multiscreen punch kit and Millipore 96 well filter plates (pore size 1.2 µm) were used. The plates were incubated with PBS/BSA (1%) solution (each well 200 µL) for one hour before use. HEK-GRPR cells were harvested and suspended carefully in Opti- […]

[4] abbreviates: 1×10^−5 mol L^−1, excitation wavelength λex=400 nm.

T1 sequence (P30550 whole entry, species assumed): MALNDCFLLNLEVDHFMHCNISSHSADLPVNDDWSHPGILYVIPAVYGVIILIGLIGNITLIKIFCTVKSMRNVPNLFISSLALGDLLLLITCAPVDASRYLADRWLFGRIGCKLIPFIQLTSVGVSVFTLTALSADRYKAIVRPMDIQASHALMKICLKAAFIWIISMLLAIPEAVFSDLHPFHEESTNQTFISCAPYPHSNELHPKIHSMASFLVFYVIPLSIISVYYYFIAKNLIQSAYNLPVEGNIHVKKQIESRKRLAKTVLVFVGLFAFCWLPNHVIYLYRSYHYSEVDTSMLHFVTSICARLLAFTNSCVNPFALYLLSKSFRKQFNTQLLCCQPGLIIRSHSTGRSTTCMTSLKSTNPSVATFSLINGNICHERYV

Take `CSCC[C@H](NC(=O)[C@H](CC(C)C)NC(=O)[C@H](Cc1c[nH]cn1)NC(=O)CNC(=O)[C@@H](NC(=O)[C@H](C)NC(=O)[C@H](Cc1c[nH]c2ccccc12)NC(=O)[C@H](CCC(N)=O)NC(=O)CCOCCOCCOCCOCCNC(=O)CON=Cc1ccc(C(=O)NCCCN(CCCNC(=O)c2ccc(C=NOCC(=O)NCCOCCOCCOCCOCCC(=O)N[C@@H](CCC(N)=O)C(=O)N[C@@H](Cc3c[nH]c4ccccc34)C(=O)N[C@@H](C)C(=O)N[C@H](C(=O)NCC(=O)N[C@@H](Cc3c[nH]cn3)C(=O)N[C@@H](CC(C)C)C(=O)N[C@@H](CCSC)C(N)=O)C(C)C)cc2)CC(=O)N[C@H](CSC2CC(=O)N(CCN3C(=O)CC(SC[C@H](NC(=O)[C@H](CCCCNC(=O)c4cc5cc6c7c(c5oc4=O)CCCN7CCC6)NC(=O)CC[C@H](C(=O)O)N4CCN(CC(=O)O)CCN(CC(=O)O)CC4)C(N)=O)C3=O)C2=O)C(=O)NCCOCCOCC(N)=O)cc1)C(C)C)C(N)=O` (stereo partly shown) [Compound 12]: the IC50 in series [1] came out at 0.0209 ± 0.00167 µM. Moreover, in series [2], the “Log ϵ” value is recorded as 4.30 M ^−1 cm^−1, the Stokes shift turned out to be 40 nm and the λ max came to 455 nm. The λem in series [2] (setting [4]) came to 495 nm. The compound also had a logD in series [3] of -1.72 ± 0.13.
As for `CSCC[C@H](NC(=O)[C@H](CC(C)C)NC(=O)[C@H](Cc1c[nH]cn1)NC(=O)CNC(=O)[C@@H](NC(=O)[C@H](C)NC(=O)[C@H](Cc1c[nH]c2ccccc12)NC(=O)[C@H](CCC(N)=O)NC(=O)CCOCCOCCOCCOCCNC(=O)CON=Cc1ccc(C(=O)NCCCN(CCCNC(=O)c2ccc(C=NOCC(=O)NCCOCCOCCOCCOCCC(=O)N[C@@H](CCC(N)=O)C(=O)N[C@@H](Cc3c[nH]c4ccccc34)C(=O)N[C@@H](C)C(=O)N[C@H](C(=O)NCC(=O)N[C@@H](Cc3c[nH]cn3)C(=O)N[C@@H](CC(C)C)C(=O)N[C@@H](CCSC)C(N)=O)C(C)C)cc2)CC(=O)N[C@H](CSC2CC(=O)N(CCN3C(=O)CC(SC[C@H](NC(=O)[C@H](CCCCNc4ccc([N+](=O)[O-])c5nonc45)NC(=O)CC[C@H](C(=O)O)N4CCN(CC(=O)O)CCN(CC(=O)O)CC4)C(N)=O)C3=O)C2=O)C(=O)NCCOCCOCC(N)=O)cc1)C(C)C)C(N)=O` (stereo partly shown) [Compound 10], in series [2], the “Log ϵ” value is 4.10 M ^−1 cm^−1 and the λ max came out at 490 nm. This compound also had a λem in series [2] (setting [4]) of 545 nm. Further, in series [3], the logD is -1.42 ± 0.24.
Take `CSCC[C@H](NC(=O)[C@H](CC(C)C)NC(=O)[C@H](Cc1c[nH]cn1)NC(=O)CNC(=O)[C@@H](NC(=O)[C@H](C)NC(=O)[C@H](Cc1c[nH]c2ccccc12)NC(=O)[C@H](CCC(N)=O)NC(=O)CCOCCOCCOCCOCCNC(=O)CON=Cc1ccc(C(=O)NCCCN(CCCNC(=O)c2ccc(C=NOCC(=O)NCCOCCOCCOCCOCCC(=O)N[C@@H](CCC(N)=O)C(=O)N[C@@H](Cc3c[nH]c4ccccc34)C(=O)N[C@@H](C)C(=O)N[C@H](C(=O)NCC(=O)N[C@@H](Cc3c[nH]cn3)C(=O)N[C@@H](CC(C)C)C(=O)N[C@@H](CCSC)C(N)=O)C(C)C)cc2)CC(=O)N[C@H](CSC2CC(=O)N(CCN3C(=O)CC(SC[C@H](NC(=O)[C@H](CCCC[n+]4c(C)cc(/C=C/C=C/c5ccc(N(C)C)cc5)cc4C)NC(=O)CC[C@H](C(=O)O)N4CCN(CC(=O)O)CCN(CC(=O)O)CC4)C(N)=O)C3=O)C2=O)C(=O)NCCOCCOCC(N)=O)cc1)C(C)C)C(N)=O` (stereo partly shown) [Compound 8]: the IC50 in series [1] is 0.0155 ± 0.00076 µM. Further, in series [2], the “Log ϵ” value is 4.16 M ^−1 cm^−1, the Stokes shift came out at 230 nm and the λ max came out at 470 nm. This compound registered a λem in series [2] (setting [4]) of 700 nm. The log distribution coefficient (logD) in series [3] is -1.73 ± 0.2.
For the compound `CSCC[C@H](NC(=O)[C@H](CC(C)C)NC(=O)[C@H](Cc1c[nH]cn1)NC(=O)CNC(=O)[C@@H](NC(=O)[C@H](C)NC(=O)[C@H](Cc1c[nH]c2ccccc12)NC(=O)[C@H](CCC(N)=O)NC(=O)CCOCCOCCOCCOCCNC(=O)CON=Cc1ccc(C(=O)NCCCN(CCCNC(=O)c2ccc(C=NOCC(=O)NCCOCCOCCOCCOCCC(=O)N[C@@H](CCC(N)=O)C(=O)N[C@@H](Cc3c[nH]c4ccccc34)C(=O)N[C@@H](C)C(=O)N[C@H](C(=O)NCC(=O)N[C@@H](Cc3c[nH]cn3)C(=O)N[C@@H](CC(C)C)C(=O)N[C@@H](CCSC)C(N)=O)C(C)C)cc2)CC(=O)N[C@H](CSC2CC(=O)N(CCN3C(=O)CC(SC[C@H](NC(=O)[C@H](CCCCNC(=O)c4ccccc4C4=c5cc6c7c(c5Oc5c4cc4c8c5CCCN8CCC4)CCC[N+]=7CCC6)NC(=O)CC[C@H](C(=O)O)N4CCN(CC(=O)O)CCN(CC(=O)O)CC4)C(N)=O)C3=O)C2=O)C(=O)NCCOCCOCC(N)=O)cc1)C(C)C)C(N)=O` (stereo partly shown) [Compound 13], the IC50 in series [1] is 0.018 ± 0.00086 µM. In addition, in series [2], the “Log ϵ” value was determined as 4.57 M ^−1 cm^−1, the Stokes shift worked out at 20 nm and the λ max is recorded as 590 nm. In series [2] (1×10^−5 mol L^−1, excitation wavelength λex=500 nm), this compound had a λem of 610 nm. This compound gave a log distribution coefficient (logD) in series [3] of -0.81 ± 0.05.
As to `CSCC[C@H](NC(=O)[C@H](CC(C)C)NC(=O)[C@H](Cc1c[nH]cn1)NC(=O)CNC(=O)[C@@H](NC(=O)[C@H](C)NC(=O)[C@H](Cc1c[nH]c2ccccc12)NC(=O)[C@H](CCC(N)=O)NC(=O)CCOCCOCCOCCOCCNC(=O)CON=Cc1ccc(C(=O)NCCCN(CCCNC(=O)c2ccc(C=NOCC(=O)NCCOCCOCCOCCOCCC(=O)N[C@@H](CCC(N)=O)C(=O)N[C@@H](Cc3c[nH]c4ccccc34)C(=O)N[C@@H](C)C(=O)N[C@H](C(=O)NCC(=O)N[C@@H](Cc3c[nH]cn3)C(=O)N[C@@H](CC(C)C)C(=O)N[C@@H](CCSC)C(N)=O)C(C)C)cc2)CC(=O)N[C@H](CSC2CC(=O)N(CCN3C(=O)CC(SC[C@H](NC(=O)[C@H](CCCCNS(=O)(=O)c4cccc5c(N(C)C)cccc45)NC(=O)CC[C@H](C(=O)O)N4CCN(CC(=O)O)CCN(CC(=O)O)CC4)C(N)=O)C3=O)C2=O)C(=O)NCCOCCOCC(N)=O)cc1)C(C)C)C(N)=O` (stereo partly shown) [Compound 9], in series [1], the half-maximal inhibitory concentration (IC50) was 0.0262 ± 0.00089 µM. Besides, the λem in series [2] (setting [4]) is on record as 540 nm. Also, in series [3], the pH-dependent lipophilicity (logD) is -1.59 ± 0.06.
